Test results from patent publication US20230071765.

Biological target: human insulin (disulfide-bonded heterodimer), P01308
Sequence (P01308 whole entry, looked up, one chain of several): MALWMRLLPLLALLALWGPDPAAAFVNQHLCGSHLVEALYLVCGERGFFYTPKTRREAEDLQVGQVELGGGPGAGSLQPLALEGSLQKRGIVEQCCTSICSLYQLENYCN

Protein	disulfide reduction activity by RP-HPLC (main HIC fraction after drying and reconstitution in saline)	conversion of insulin heterodimer peak (RP-HPLC insulin reduction, 0.025 mM ORP-100, pH 6, 60 min)
ORP100S (fully monocysteinic human thioredoxin-1, reduced form) (protein) VKQIESKTAFQEALDAAGDKLVVVDFSATWCGPSKMIKPFFHSLSEKYSNVIFLEVDVDDSQDVASESEVKSMPTFQFFKKGQKVGEFSGANKEKLEATINELV	the main fraction showed comparable disulfide reduction activity by DTNB and RP-HPLC to thioredoxin compositions purified without removing the red fraction	–
ORP-100 (C35S monocysteinic active site thioredoxin) (protein) VKQIESKTAFQEALDAAGDKLVVVDFSATWCGPSKMIKPFFHSLSEKYSNVIFLEVDVDDCQDVASECEVKCMPTFQFFKKGQKVGEFSGANKEKLEATINELV	–	even at acidic pH 6 ORP-100 is able to markedly reduce the insulin heterodimer peak, and at 1/500 the concentration of NAC
